The source of these data is patent US20210340516A1, “COMPOSITIONS CONTAINING ARGINASE 1 FOR THE TREATMENT OF NEUROVASCULAR AND RETINAL VASCULAR DISORDERS” (Augusta University Research Institute, Inc., priority 2020, published 2021).

Series [1] can be described thus: Pharmacokinetic profile of PEG-A1 in mouse vitreous by arginase activity after intravitreal administration. Type of series: in vivo. As to conditions: adult mice, intravitreal 6.8 ng in 1 μL. The source says: Based on the results of the above studies showing detrimental effects of A1 hemizygous deletion on vascular repair in A1^+/− mice and the findings that increases in A1 expression accompany the beneficial effects of A2 deletion on the vascular injury, it was hypothesized that treatment with A1 could be useful in limiting OIR-induced retinal injury. To test this, a PEG-A1 was used. […] Adult mice were used in this experiment to get higher vitreous yield for ease of processing.

Series [2] has as its system WT pups subjected to oxygen-induced retinopathy (OIR). The experiment in a line: OIR mouse model: morphometric analysis of vaso-obliteration and neovascularization on lectin-labeled retinal flat mounts. In kind it is in vivo. The source says: OIR mouse model: Wild type (WT) or heterozygous A1 knock out (A1^+/−) mice and their wild type (WT) littermates were subjected to oxygen induced retinopathy (OIR). Because deletion of both copies of A1 is lethal due to hyperammonemia, mice lacking 1 copy of A1 were used which is sufficient to dampen its activity (Zhang, et al., Am J Pathol, 175:891-902 (2009); Elms, et al., Diabetologia, 56:654-662 (2013); Patel, et al., Front Immunol, 4:173 (2014)). OIR was induced in newborn mice according to the protocol of Smith, et al. with some adjustments (Connor, et al., Nature Protocols, 4:1565-1573 (2009)). On P7 (postnatal day 7), mice were placed along with their dams in a hyperoxia (70% oxygen) chamber for up to 5 days, after which they were transferred back to room air on P12. The 70% oxygen concentration was used for experiments involving A1^+/− mice based on preliminary experiments showing intolerance of the A1^+/− mice to 75% oxygen treatment. Mice were sacrificed at various times and retinas were collected for analyses (FIG. 1A-1C). In all experiments, mice were compared to their littermate controls. Then data were pooled together to minimize variability between litters due to differences in litter size and weight gain (Kim, et al., Eye and Brain, 8:67-79 (2016)). These experiments were performed in accordance with the ARVO Statement for the Use of Animals in Ophthalmic and Vision Research, and were approved by the institutional animal care and use committee.
Analysis of vaso-obliteration and neovascularization: Eyeballs were fixed in 4% paraformaldehyde (PFA) overnight. Retina flat-mounts were dissected and then blocked and permeabilized in phosphate-buffered saline (PBS) containing 10% goat serum and 1% Triton X-100 (Sigma-Aldrich) for 30 minutes. Retinas were then immunolabeled with Alex594-labeled Griffonia simplicifolia isolectin B4 (1:200; Invitrogen, Carlsbad, Calif.) overnight at 4° C. Retinas were flat-mounted in mounting medium (Vectashield; Vector Laboratories, Burlingame, Calif.) and images were captured using fluorescence microscopy (Axioplan 2, Carl Zeiss Vision Inc.). Areas of central capillary dropout (vaso-obliteration, VO) and vitreoretinal neovascular tufts (neovascularization, NV) were quantified in a masked fashion using ImageJ software (NIH, Bethesda, Md.) (Connor, et al., Nature Protocols, 4:1565-1573 (2009); Patel, et al., Am J Pathol, 184:3040-3051 (2014)). High-magnification images were acquired to perform vessel sprouting analysis. Vessel sprouts were counted as previously described Patel, et al., Am J Pathol, 184:3040-3051 (2014)).
PBS was used as vehicle control. Pups were anesthetized before treatment by intraperitoneal (i.p.) injection of ketamine/xylazine mixture. Intravitreal injections were performed using a 36-gauge NanoFil needle mounted to a 10-μL Hamilton syringe (World Precision Instruments). Two treatment strategies were employed. […] The P9 time point was selected based on the fact that vaso-obliteration occurs within the first 48 hours of hyperoxia treatment (Connor, et al., Nature Protocols, 4:1565-1573 (2009); Lange, et al., Graefe's archive for clinical and experimental ophthalmology, 247:1205-1211 (2009); Gu, et al., Investigative ophthalmology & visual science, 43:496-502 (2002)).

Series [3] is described as follows: Retinal ischemia-reperfusion (IR) injury: PEG-A1 penetration of the blood-retina barrier (anti-PEG Western blot, flat-mount immunolabeling). Type of series: in vivo, mouse. How it is done:
Mouse retinal ischemia-reperfusion (IR) injury and traumatic optic neuropathy (TON) models: All experiments were performed in accordance with the ARVO Statement for the Use of Animals in Ophthalmic and Vision Research and were approved by the institutional animal care and use committee (Animal Welfare Assurance no. D16-00197). Wild-type (WT) C57BL/6J mice (10-12 weeks old) were anesthetized using ketamine/xylazine mixture then subjected to retinal ischemia-reperfusion (IR) injury or optic nerve crush (ONC) to model traumatic optic neuropathy (TON) as described in Shosha, et al., Cell death & disease, 7:e2483-e (2016) and Xu, et al., Frontiers in Neuroscience, 12:970 (2018). Mice were sacrificed at 24 hours or 7 days after by deep anesthesia followed by trans-cardial perfusion with PBS or thoracotomy and eyeballs were collected and fixed in 4% PFA for immunolabeling or retinas were extracted without fixation and homogenized in Radioimmunoprecipitation Assay (RIPA) lysis buffer for Western blotting.
Western blotting: Western blotting on retina or brain was conducted as described in Fouda, A Y, et al., Cell death & Disease, 9:1001 (2018). Membranes were probed with anti-PEG (RevMAb Biosciences, 1:1000) and anti-albumin (Bethyl Laboratories, 1:5000). Uncropped blots are included in FIG. 22.
Fluorescent immunolabeling: Retinal flat-mounts were permeabilized and immunolabeled with anti-PEG antibody (RevMAb Biosciences, 1:400) and co-stained with Alex594-labeled Griffonia simplicifolia isolectin B4 (1:200; Invitrogen) as described in Shosha, et al., Cell death & disease, 7:e2483-e (2016).
Mice were deeply anesthetized and sacrificed 24 hours later by trans-cardial perfusion with PBS (FIG. 16A). […] These mice were sacrificed at day 7 without trans-cardial perfusion and retina flat-mounts were immunolabeled to show PEG distribution within the retina (FIG. 16D).
PEG-A1 treatment in acute retinal and brain injury mouse models: A pharmaceutical grade of PEG-A1 was provided as a kind gift from Bio-Cancer Treatment International Limited (BCT, Hong Kong). […] Methoxy polyethylene glycol propionic acid (MW 5,000—Sigma, Catalog number 88908-1G-F) was used as vehicle control.

[4] abbreviates: intravitreal 6.8 ng in 0.5 μL at P12, analysis at P17.
The mark [5] stands for this setting: 25 mg/kg i.p. at 3 hours after reperfusion, 24 hours, perfused.
Setting [6] is: 25 mg/kg i.p. at 3 hours and day 4, day 7, no perfusion.

B1: PEG-A1: recombinant human arginase (rhArg) covalently attached to methoxy polyethylene glycol (mPEG-SPA; MW 5,000) via succinamide propionic acid (SPA) linker (protein, UniProt P05089 1-322, looked up)
Arginase-1: MSAKSRTIGIIGAPFSKGQPRGGVEEGPTVLRKAGLLEKLKEQECDVKDYGDLPFADIPNDSPFQIVKNPRSVGKASEQLAGKVAEVKKNGRISLVLGGDHSLAIGSISGHARVHPDLGVIWVDAHTDINTPLTTTSGNLHGQPVSFLLKELKGKIPDVPGFSWVTPCISAKDIVYIGLRDVDPGEHYILKTLGIKYFSMTEVDRLGIGKVMEETLSYLLGRKKRPIHLSFDVDGLDPSFTPATGTPVVGGLTYREGLYITEEIYKTGLLSGLDIMEVNPSLGKTPEEVTRTVNTAVAITLACFGLAREGNHKPIDYLNPPK
modifications: mPEG-SPA 5 kDa conjugate
notes: recombinant human arginase (rhArg) covalently attached to methoxy polyethylene glycol (mPEG-SPA; MW 5,000) via succinamide propionic acid (SPA) linker
For the molecule B1, in series [1] (day 3 post injection), the vitreous arginase activity result is “three-fold”. Besides, the vitreous arginase activity result in series [1] (day 6) was “returned to baseline”. Besides, in series [1] (immediately after administration), the “vitreous arginase activity as compared to vehicle treatment” value is given as “about six-fold increase”. Besides, in series [2] (intravitreal 6.8 ng in 0.5 μL at P7, hyperoxia, P9), the “hyperoxia-induced vaso-obliteration (capillary dropout area)” value is on record as “does not affect”. Besides, in series [2] (setting [4]), the avascular area entry was “avascular area was reduced”, the “endothelial tip cells (vessel sprouts) per field of view” value is “two-fold increase” and the “neovascular tufts (pathological neovascularization)” value is “reduced neovascular tufts”. The “lectin-positive vitreal macrophages after OIR” value in series [2] (intravitreal PEG-A1, vs vehicle) is “increased”. For the same molecule, in series [3] (setting [5]), the “anti-PEG immunoreactivity in liver homogenates (Western blot)” value is “strong band”; the “anti-PEG reactivity in retina homogenates, IR-injured retinas” value is on record as “strong anti-PEG reactivity”; the “anti-PEG reactivity in retina homogenates, sham eyes” value is on record as “faint anti-PEG reactive bands”. Also, in series [3] (setting [6]), the “PEG distribution within the retina (flat-mount immunolabeling), IR-injured retinas” value is reported as “more diffuse signal” and the “PEG distribution within the retina (flat-mount immunolabeling), sham retinas” value is reported as “restricted to a vessel-like network”.
